Test results as given in patent US20240398911A1 (BOARD OF THE TRUSTEES OF THE UNIVERSITY OF ILLINOIS, published 2024).
Like-named read-outs stand apart in the source and are kept apart here.

Assays:
[1] = target: full length S of SARS-CoV-2 (untagged, a.a. 1-1273) expressed on Expi293F cells (SARS-CoV-2, UniProt P0DTC2 16-1273)
[2] = target: T1, RBD (a.a. 333-529) of SARS-CoV-2 S with 8 histidine tag (SARS-CoV-2, UniProt P0DTC2 333-529)
[3] = target: S protein of SARS-CoV-1 expressed on Expi293F cells (SARS-CoV-1, UniProt P59594 14-1255); assay: flow cytometry; Expi293F cells expressing S of SARS-CoV-1; normalized units, N=3
[4] = target: T1, RBD (a.a. 333-529) of SARS-CoV-2 S with …; assay: BLI, sACE22-IgG1 immobilized, RBD-8h analyte
[5] = target: T1, RBD (a.a. 333-529) of SARS-CoV-2 S with …; remark: listed apart in the source

B1: sACE2.v2 with 8 histidine tag (receptor)
chain: STIEEQAKYFLDKFNHEAEDLFYQSSLASWNYNTNITEENVQNMNNAGDKWSAFLKEQSTTAQMYPLQEIQNLTVKLQLQALQQNGSSVLSEDKSKRLNTILNTMSTIYSTGKVCNPDNPQECLLLEPGLNEIMANSLDYNERLWAWESWRSEVGKQLRPLYEEYVVLKNEMARANHYEDYGDYWRGDYEVNGVDGYDYSRGQLIEDVEHTFEEIKPLYEHLHAYVRAKLMNAYPSYISPIGCLPAHLLGDMWGRFWTNLYSLTVPFGQKPNIDVTDAMVDQAWDAQRIFKEAEKFFVSVGLPNMTQGFWEYSMLTDPGNVQKAVCHPTAWDLGKGDFRILMCTKVTMDDFLTAHHEMGHIQYDMAYLAQPFLLRNGANEGFHEAVGEIMSLSAATPKHLKSIGLLSPDFQEDNETEINFLLKQALTIVGTLPFTYMLEKWRWMVFKGEIPKDQWMKKWWEMKREIVGVVEPVPHDETYCDPASLFHVSNDYSFIRYYTRTLYQFQFQEALCQAAKHEGPLHKCDISNSTEAGQKLFNMLRLGKSEPWTLALENVVGAKNMNVRPLLNYFEPLFTWLKDQNKNSFVGWSTDWSPYADGSGHHHHHHHH
EC50 (read off the curve) [1]: ~10 nM
IC50 (read off the curve) [2]: ~6 nM

B2: REGN10987 (imdevimab) (antibody, V domains shown)
VH: QVQLVESGGGVVQPGRSLRLSCAASGFTFSNYAMYWVRQAPGKGLEWVAVISYDGSNKYYADSVKGRFTISRDNSKNTLYLQMNSLRTEDTAVYYCASGSDYGDYLLVYWGQGTLVTVSS
VL: QSALTQPASVSGSPGQSITISCTGTSSDVGGYNYVSWYQQHPGKAPKLMIYDVSKRPSGVSNRFSGSKSGNTASLTISGLQSEDEADYYCNSLTSISTWVFGGGTKLTVLG
binding result [3]: no binding (tested: 70 nM)

B3: REGN10933 (casirivimab) (antibody, V domains shown)
VH: QVQLVESGGGLVKPGGSLRLSCAASGFTFSDYYMSWIRQAPGKGLEWVSYITYSGSTIYYADSVKGRFTISRDNAKSSLYLQMNSLRAEDTAVYYCARDRGTTMVPFDYWGQGTLVTVSS
VL: DIQMTQSPSSLSASVGDRVTITCQASQDITNYLNWYQQKPGKAPKLLIYAASNLETGVPSRFSGSGSGTDFTFTISGLQPEDIATYYCQQYDNLPLTFGGGTKVEIKR
binding result [3]: no binding (tested: 70 nM)

B4: dimeric sACE22.v2 fused to the Fc of human IgG1 (Fc fusion)
chain: STIEEQAKYFLDKFNHEAEDLFYQSSLASWNYNTNITEENVQNMNNAGDKWSAFLKEQSTTAQMYPLQEIQNLTVKLQLQALQQNGSSVLSEDKSKRLNTILNTMSTIYSTGKVCNPDNPQECLLLEPGLNEIMANSLDYNERLWAWESWRSEVGKQLRPLYEEYVVLKNEMARANHYEDYGDYWRGDYEVNGVDGYDYSRGQLIEDVEHTFEEIKPLYEHLHAYVRAKLMNAYPSYISPIGCLPAHLLGDMWGRFWTNLYSLTVPFGQKPNIDVTDAMVDQAWDAQRIFKEAEKFFVSVGLPNMTQGFWEYSMLTDPGNVQKAVCHPTAWDLGKGDFRILMCTKVTMDDFLTAHHEMGHIQYDMAYLAQPFLLRNGANEGFHEAVGEIMSLSAATPKHLKSIGLLSPDFQEDNETEINFLLKQALTIVGTLPFTYMLEKWRWMVFKGEIPKDQWMKKWWEMKREIVGVVEPVPHDETYCDPASLFHVSNDYSFIRYYTRTLYQFQFQEALCQAAKHEGPLHKCDISNSTEAGQKLFNMLRLGKSEPWTLALENVVGAKNMNVRPLLNYFEPLFTWLKDQNKNSFVGWSTDWSPYADQSIKVRISLKSALGDKAYEWNDNEMYLFRSSVAYAMRQYFLKVKNQMILFGEEDVRVANLKPRISFNFFVTAPKNVSDIIPRTEVEKAIRMSRSRINDAFRLNDNSLEFLGIQPTLGGS
Kd [4]: 0.2 nM
koff [4]: 0.00014 s⁻¹
kon [4]: 580000 M⁻¹ s⁻¹

B5: dimeric sACE22.v2.4 with 8 histidine tag (receptor)
chain: STIEEQAKYFLDKFNHEAEDLFYQSSLASWNYNTNITEENVQNMNNAGDKWSAFLKEQSTTAQMYPLQEIQNLTVKLQLQALQQNGSSVLSEDKSKRLNTILNTMSTIYSTGKVCNPDNPQECLLLEPGLNEIMANSLDYNERLWAWESWRSEVGKQLRPLYEEYVVLKNEMARANHYEDYGDYWRGDYEVNGVDGYDYSRGQLIEDVEHTFEEIKPLYEHLHAYVRAKLMNAYPSYISPIGCLPAHLLGDMWGRFWTNLYSLTVPFGQKPNIDVTDAMVDQAWDAQRIFKEAEKFFVSVGLPNMTQGFWEYSMLTDPGNVQKAVCHPTAWDLGKGDFRILMCTKVTMDDFLTAHHEMGHIQYDMAYAAQPFLLRNGANEGFHEAVGEIMSLSAATPKHLKSIGLLSPDFQEDNETEINFLLKQALTIVGTLPFTYMLEKWRWMVFKGEIPKDQWMKKWWEMKREIVGVVEPVPHDETYCDPASLFHVSNDYSFIRYYTRTLYQFQFQEALCQAAKHEGPLHKCDISNSTEAGQKLFNMLRLGKSEPWTLALENVVGAKNMNVRPLLNYFEPLFTWLKDQNKNSFVGWSTDWSPYADQSIKVRISLKSALGDKAYEWNDNEMYLFRSSVAYAMRQYFLKVKNQMILFGEEDVRVANLKPRISFNFFVTAPKNVSDIIPRTEVEKAIRMSRSRINDAFRLNDNSLEFLGIQPTLGGSGHHHHHHHH
IC50 (read off the curve) [5]: ~4 nM
